# Source: patent US20170189511A1
# Target: HLA-A*24 (peptide-receptive MHC class I monomer of the UV-ligand exchange assay) (human)
# Test: UV-ligand exchange with anti-b2m ELISA
row,Binder,peptide exchange yield
1,VYTLDIPVL [Peptide SEQ ID NO: 160 (…)],> 75%
2,TYTTVPRVAF [Peptide SEQ ID NO: 172 (…)],> 75%
3,KYTSWYVAL [Peptide SEQ ID NO: 228 (…)],> 75%
4,AYLHSHALI [Peptide SEQ ID NO: 274 (…)],> 75%
5,VFTRVSSFL [Peptide SEQ ID NO: 162 (…)],50 to 75%
6,RYSTGLAGNLL [Peptide SEQ ID NO: 221 (…)],50 to 75%
7,FFPPTRQMGLLF [Peptide SEQ ID NO: 217 (…)],> 75%
8,DYLKGLASF [Peptide SEQ ID NO: 163 (…)],> 75%
9,KYQDILETI [Peptide SEQ ID NO: 168 (…)],> 75%
10,IYKVGAPTI [Peptide SEQ ID NO: 185 (…)],50 to 75%
11,VFTSTARAF [Peptide SEQ ID NO: 183 (…)],50 to 75%
12,GFFIFNERF [Peptide SEQ ID NO: 190 (…)],50 to 75%
13,WYVNGVNYF [Peptide SEQ ID NO: 189 (…)],20 to 49%
14,RYISDQLFTNF [Peptide SEQ ID NO: 278 (…)],> 75%
15,TYTQDFNKF [Peptide SEQ ID NO: 208 (…)],50 to 75%
16,KYIPYKYVI [Peptide SEQ ID NO: 223 (…)],50 to 75%
17,IYTMIYRNL [Peptide SEQ ID NO: 210 (…)],> 75%
18,EYNQWFTKL [Peptide SEQ ID NO: 176 (…)],50 to 75%
19,VYVGGGQIIHL [Peptide SEQ ID NO: 174 (…)],50 to 75%
20,SYALLTYMI [Peptide SEQ ID NO: 192 (…)],> 75%
21,KFVDSTFYL [Peptide SEQ ID NO: 282 (…)],> 75%
22,QYSSVFKSL [Peptide SEQ ID NO: 216 (…)],> 75%
23,YFDKVVTL [Peptide SEQ ID NO: 215 (YFDKVVTL)],20 to 49%
24,VFQNFPLLF [Peptide SEQ ID NO: 184 (…)],> 75%
25,YYVYIMNHL [Peptide SEQ ID NO: 225 (…)],50 to 75%

row,Binder,peptide exchange yield
1,IYQLDTASI [Peptide SEQ ID NO: 182 (…)],50 to 75%
2,TYSVSFPMF [Peptide SEQ ID NO: 195 (…)],> 75%
3,LYLKLWNLI [Peptide SEQ ID NO: 214 (…)],50 to 75%
4,EYQENFLSF [Peptide SEQ ID NO: 206 (…)],50 to 75%
5,FYSRLLQKF [Peptide SEQ ID NO: 203 (…)],50 to 75%
6,MYDSYWRQF [Peptide SEQ ID NO: 179 (…)],> 75%
7,IYDDSFIRPVTF [Peptide SEQ ID NO: 180 (…)],50 to 75%
8,EYPLVINTL [Peptide SEQ ID NO: 219 (…)],50 to 75%
9,IFIEVFSHF [Peptide SEQ ID NO: 178 (…)],50 to 75%
10,IYLVSIPEL [Peptide SEQ ID NO: 161 (…)],> 75%
11,TYIKPISKL [Peptide SEQ ID NO: 273 (…)],50 to 75%
12,RYFKGLVF [Peptide SEQ ID NO: 188 (RYFKGLVF)],50 to 75%
13,VYGFQWRHF [Peptide SEQ ID NO: 276 (…)],> 75%
14,DYTTWTALL [Peptide SEQ ID NO: 165 (…)],> 75%
15,AYTLIAPNI [Peptide SEQ ID NO: 169 (…)],50 to 75%
16,TYGDAGLTYTF [Peptide SEQ ID NO: 283 (…)],50 to 75%
17,VYPWLGALL [Peptide SEQ ID NO: 177 (…)],> 75%
18,LYIDRPLPYL [Peptide SEQ ID NO: 196 (…)],50 to 75%
19,YYEVHKELF [Peptide SEQ ID NO: 175 (…)],> 75%
20,IFPQFLYQF [Peptide SEQ ID NO: 186 (…)],> 75%
21,VFKASKITF [Peptide SEQ ID NO: 191 (…)],50 to 75%
22,NYINRILKL [Peptide SEQ ID NO: 167 (…)],> 75%
23,LYLDIINLF [Peptide SEQ ID NO: 181 (…)],> 75%
24,RYPDNLKHLYL [Peptide SEQ ID NO: 280 (…)],> 75%
25,RYLNKAFHI [Peptide SEQ ID NO: 284 (…)],50 to 75%

row,Binder,peptide exchange yield
1,VYRDETGELF [Peptide SEQ ID NO: 226 (…)],50 to 75%
2,LFIPSSKLLFL [Peptide SEQ ID NO: 171 (…)],50 to 75%
3,QYLQDAYSF [Peptide SEQ ID NO: 272 (…)],> 75%
4,KYPVEWAKF [Peptide SEQ ID NO: 289 (…)],> 75%
5,KFSSFSLFF [Peptide SEQ ID NO: 164 (…)],50 to 75%
6,IYSWILDHF [Peptide SEQ ID NO: 173 (…)],> 75%
7,VHIPEVYLI [Peptide SEQ ID NO: 205 (…)],50 to 75%
8,LYNKGFIYL [Peptide SEQ ID NO: 159 (…)],> 75%
9,QYLENLEKL [Peptide SEQ ID NO: 224 (…)],50 to 75%
10,LYHDIFSRL [Peptide SEQ ID NO: 271 (…)],> 75%
11,EYINQGDLHEF [Peptide SEQ ID NO: 275 (…)],50 to 75%
12,VYVSDIQEL [Peptide SEQ ID NO: 288 (…)],50 to 75%
13,TYIESASEL [Peptide SEQ ID NO: 279 (…)],50 to 75%
14,LYLDKATLI [Peptide SEQ ID NO: 198 (…)],50 to 75%
15,HYSQELSLLYL [Peptide SEQ ID NO: 158 (…)],> 75%
16,RYPDNLKHL [Peptide SEQ ID NO: 286 (…)],20 to 49%
17,IFLDYEAGTLSF [Peptide SEQ ID NO: 227 (…)],> 75%
18,YYLEVGKTLI [Peptide SEQ ID NO: 211 (…)],> 75%
19,EFGSLHLEFL [Peptide SEQ ID NO: 194 (…)],< 20%
20,KYMVYPQTF [Peptide SEQ ID NO: 267 (…)],> 75%
21,TYLRDQHFL [Peptide SEQ ID NO: 187 (…)],> 75%
22,YYVESGKLF [Peptide SEQ ID NO: 166 (…)],> 75%
23,VYEDQVGKF [Peptide SEQ ID NO: 170 (…)],20 to 49%
24,RFHPTPLLL [Peptide SEQ ID NO: 193 (…)],> 75%
